Laboratory results as given in the supplement of paper PMC9732359.
± gives the uncertainty stated by the source.

Assay: protein stability index of a GFP-peptide fusion (yeast GPS) (PSI 1-4); higher = more stable; sorted into four equal gates, so the index is relative within each strain
Method in brief: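 Peptides tiling yeast proteins in 17-residue segments were fused downstream of GFP, with Cherry expressed from the same plasmid. As a pooled library in yeast, mid-log cultures grown in leucine-free medium were sorted into four equal gates by GFP/Cherry fluorescence ratio. Gate plasmids were PCR-amplified and Illumina-sequenced, and barcodes linked reads to strains. Each peptide received a protein stability index equal to the sum of each gate's read frequency times its gate number.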

Sequence	protein stability index (doa10∆)	protein stability index (pdr5∆)	protein stability index (san1∆)	protein stability index (ubr1∆)
SAGLFGSKPAGGTSLFG [YGL172W/NUP49]	2.6 ± 0.081	2.9 ± 0.1	2.27 ± 0.098	2.66 ± 0.047
SAGRIESNNPSHDASRS [SIR4]	2.85 ± 0.21	2.3 ± 0.11		2.98 ± 0.17
SAIDEEIEELIDSINGP [SMC3]	3.29 ± 0.14	3.24 ± 0.17	3.08 ± 0.17	2.42 ± 0.24
SAIIENAFRKEELLLKD [GAL11]		1.14 ± 0.16		1.18 ± 0.22
SAIRQVFERFKTKILEV [IRR1]	1.87 ± 0.045	2.03 ± 0.06	1.71 ± 0.07	2.26 ± 0.05
SAISVTNVEDPLAKKQT [SIR2]				3.2 ± 0.21
SANERLFGNRPSMMAPL [YML031W/NDC1]	2.96 ± 0.21	2.63 ± 0.13	2.62 ± 0.12	3.03 ± 0.089
SAPIYVDIEYTRGRNII [RET1]	2.42 ± 0.11	2.51 ± 0.12	2.88 ± 0.064	2.86 ± 0.1
SAQAETEALLLEHDVEY [DIS3]	3.19 ± 0.087	3.22 ± 0.098	3.3 ± 0.095	3.15 ± 0.066
SAQQNLASSFVNGFLNL [RPN1]	2.73 ± 0.094	2.54 ± 0.067	3.1 ± 0.059	2.75 ± 0.068
SASLKKIQQHNTILNSS [BRR2]	2.65 ± 0.052	2.93 ± 0.055	2.79 ± 0.032	2.81 ± 0.041
SATVKTSDLLGSHLSET [ECM29]	2.67 ± 0.071	2.98 ± 0.085	2.94 ± 0.095	2.86 ± 0.076
SAWIWPMDEETKLYFDV [RPC25]	2.17 ± 0.075	2.4 ± 0.11	2.49 ± 0.092	2.41 ± 0.15
SAYVKAFYQKGNKLVEL [SMC1]	1.45 ± 0.074	1.99 ± 0.051	2.12 ± 0.097	1.58 ± 0.052
SDAEEEEGEYKNAANTE [ISW2]	3.06 ± 0.14	3.44 ± 0.14	3 ± 0.17	3.3 ± 0.093
SDDKTRQLSPHTLMSFA [PRE1]	1.83 ± 0.046	2.12 ± 0.05	2.26 ± 0.082	2.18 ± 0.038
SDEERDDEDDEHNPTIV [AAR2]	3.53 ± 0.086	3.32 ± 0.089	3.09 ± 0.071	3.31 ± 0.11
SDERAKLELINRYAYVL [LRP1]	2.55 ± 0.067	3.17 ± 0.16	2.79 ± 0.11	2.93 ± 0.15
SDLVNQGIIYAKVNRPA [RPN5]	2.97 ± 0.15	3.66 ± 0.26	2.84 ± 0.17	
SDNKKRSGSNAAASLPS [RPC82]	2.89 ± 0.058	3.19 ± 0.06	2.86 ± 0.042	3 ± 0.038
SDPMLQRTATLCLEKLM [YCS4]	1.47 ± 0.21			1.14 ± 0.17
SEAEYSKDIETLKKEWL [YIL149C/MLP2]	3.26 ± 0.083	3.04 ± 0.085	3.13 ± 0.051	3 ± 0.049
SEGISEATREVFGISKT [ITC1]		3.42 ± 0.16		3.28 ± 0.2
SEHFLYLAKELNLTGPK [RPN1]	2.98 ± 0.13	2.81 ± 0.15	2.35 ± 0.19	2.98 ± 0.29
SEINEILARNDEEMAVL [SNF2]	2.88 ± 0.18	2.64 ± 0.21	3 ± 0.17	3.16 ± 0.099
SELAGDEELEAEQIDVF [PRP8]	3.08 ± 0.2	3.19 ± 0.2	3.07 ± 0.16	2.75 ± 0.18
SELQPQNRSLQEHNIQD [SNF2]	2.81 ± 0.041	3.24 ± 0.05	3.08 ± 0.04	3.09 ± 0.038

Sequence	protein stability index (doa10∆)	protein stability index (pdr5∆)	protein stability index (san1∆)	protein stability index (ubr1∆)
SENEDTKDLLSKSPSEW [CSE2]	3.21 ± 0.067	3.11 ± 0.067	3.15 ± 0.051	3.19 ± 0.046
SENQRQIFCVFSGKGVH [GRR1]	2.94 ± 0.073	2.5 ± 0.065	2.62 ± 0.053	2.76 ± 0.046
SESDLDEDKNFPRSRSR [ESC2]	2.98 ± 0.087	3.24 ± 0.08	3.32 ± 0.059	3.28 ± 0.054
SEYNFLEGSVSLPRFSK [DIS3]	3.1 ± 0.078	3.18 ± 0.068	3.11 ± 0.05	3.2 ± 0.05
SFELKEEDISDLWNNFG [RRP6]	2.85 ± 0.1	3.1 ± 0.12	2.47 ± 0.091	3.26 ± 0.073
SFILYYRRALQSSESFD [YML103C/NUP188]	1.79 ± 0.055	2.11 ± 0.067	1.98 ± 0.072	2.27 ± 0.052
SFKKIIKFLLTFIDKER [YCS4]	1.16 ± 0.065	1.29 ± 0.11	1.19 ± 0.14	1.17 ± 0.066
SFLDRKRAKEFITTLLK [SIN4]	2.35 ± 0.048	2.21 ± 0.06	2.21 ± 0.061	2.08 ± 0.042
SFLGEAKSMAFLKEVLS [YML103C/NUP188]			2.48 ± 0.18	2.54 ± 0.21
SFLMRQFTRFFLLVPSK [ECM29]	2.03 ± 0.067	2.03 ± 0.057	1.75 ± 0.12	2.31 ± 0.05
SFNESQRGEDDLTFKLA [RPO21]			3.54 ± 0.15	1.09 ± 0.14
SFTQGELNDLKWGRNQP [YMR129W/POM152]	3.04 ± 0.15	2.84 ± 0.09	3.14 ± 0.091	2.78 ± 0.074
SFTSQGTISIQLKNGLL [MTR3]	2.66 ± 0.05	2.67 ± 0.047	2.69 ± 0.055	2.61 ± 0.032
SFVGDYMHDTELNYFVG [GRR1]	3.1 ± 0.068	3.04 ± 0.09	3.35 ± 0.061	3.22 ± 0.067
SGDKEATAPLIQRKNKK [RPN8]	3.39 ± 0.2	3.35 ± 0.14	3.25 ± 0.095	
SGDREVQRTMLELLNQL [RPT5]	3.28 ± 0.12	2.73 ± 0.28	3.12 ± 0.12	3.21 ± 0.1
SGELLQGIVRVYSKQAT [MCD1]	1.82 ± 0.047	2.17 ± 0.056	2.22 ± 0.058	1.76 ± 0.049
SGGWGVPRKFKHFIQGG [RPL7A]		3.23 ± 0.18		
SGNEMPPQDAEGWFYKR [RPS19A]	3.21 ± 0.13	3.29 ± 0.24	3.25 ± 0.13	3.17 ± 0.12
SGNLPLNELSAKDKEIY [RPN13]	3.21 ± 0.074	3.32 ± 0.083	3.27 ± 0.044	3.19 ± 0.067
SGQLNFEIDGDVIHFED [PCI8]	2.94 ± 0.091	2.83 ± 0.067	2.53 ± 0.075	2.83 ± 0.043
SGTPTLKKNIEPKKDKE [YOR098C/NUP1]	3.39 ± 0.19	3.29 ± 0.11	2.71 ± 0.25	3.05 ± 0.084
SGVKNDILQSLSGGGHD [CDC53]	3.09 ± 0.075	3.09 ± 0.077	2.71 ± 0.068	2.8 ± 0.048
SGWGAVVYIIKKDEVVK [PUP3]	3.25 ± 0.088	2.96 ± 0.072	3.33 ± 0.052	3.27 ± 0.057
SHFDYNTLEFIIEQLSI [YCG1]	2.48 ± 0.078	2.62 ± 0.12	2.18 ± 0.14	2.37 ± 0.086
SHIESDSTSHNNGSSDK [MED1]	2.89 ± 0.042	2.94 ± 0.038	2.84 ± 0.042	3.01 ± 0.032
